Article PMC5418834, “Structural analysis of X-linked retinoschisis mutations reveals distinct classes which differentially effect retinoschisin function” (Human Molecular Genetics, 2016)
Values joined by “and” are separate entries in the source; they are usually repeats but may differ in a detail not shown here. Equal entries are not always repeated.

B1: R141H human retinoschisin (natural protein, UniProt O15537 24-224, looked up)
chain: STEDEGEDPWYQKACKCDCQGGPNALWSAGATSLDCIPECPYHKPLGFESGEVTPDQITCSNPEQYVGWYSSWTANKARLNSQGFGCAWLSKFQDSSQWLQIDLKEIKVISGILTQGHCDIDEWMTKYSVQYRTDERLNWIYYKDQTGNNRVFYGNSDRTSTVQNLLRPPIISRFIRLIPLGWHVRIAIRMELLECVSKCA
notes: retinoschisin, human, product of the RS1 gene, with the XLRS-associated mutation R141H; Disease-causing (XLRS) mutation that occurs in patients; Same construct as m1 apart from the mutation; also called R141H retinoschisin; R141H mutant
B2: H207Q human retinoschisin (natural protein, UniProt O15537 24-224, looked up)
chain: STEDEGEDPWYQKACKCDCQGGPNALWSAGATSLDCIPECPYHKPLGFESGEVTPDQITCSNPEQYVGWYSSWTANKARLNSQGFGCAWLSKFQDSSQWLQIDLKEIKVISGILTQGRCDIDEWMTKYSVQYRTDERLNWIYYKDQTGNNRVFYGNSDRTSTVQNLLRPPIISRFIRLIPLGWQVRIAIRMELLECVSKCA
notes: retinoschisin, human, product of the RS1 gene, with the XLRS-associated mutation H207Q; Disease-causing (XLRS) mutation that occurs in patients; Same construct as m1 apart from the mutation; also called H207Q retinoschisin; H207Q mutant

Columns and labels:
[1] = molecular target: wild-type human retinoschisin (human) (UniProt O15537); experiment: SEC-MALS; octamer fraction; 10 mM Tris pH 7.4, 150 mM NaCl
[2] = molecular target: wild-type human retinoschisin (human) (UniProt O15537); experiment: native gel or EMSA; blue-native PAGE and native blot of purified retinoschisin (H207Q at ~0.1 mg/ml)
[3] = molecular target: wild-type human retinoschisin (human) (UniProt O15537); experiment: negative-stain EM; 20 µg/ml octamer on carbon coated grids, uranyl acetate, reference-free class averages
[4] = molecular target: wild-type human retinoschisin (human) (UniProt O15537); experiment: cryo-EM structure; 0.1 mg/ml of octamer vitrified on C-Flat R2/2 grids; C8 (wild type) or D8 (R141H) symmetry
[5] = molecular target: wild-type human retinoschisin (human) (UniProt O15537); experiment: AUC; sedimentation velocity of the octamer fraction, ~0.1 mg/ml, 10 mM Tris pH 7.4, 150 mM NaCl, 20°C, 45,000 rpm
[6] = molecular target: the molecule itself; experiment: SEC-MALS; octamer fraction; 10 mM Tris pH 7.4, 150 mM NaCl
[7] = molecular target: the molecule itself; experiment: native gel or EMSA; blue-native PAGE and native blot of purified retinoschisin (H207Q at ~0.1 mg/ml)
[8] = molecular target: the molecule itself; experiment: negative-stain EM; 20 µg/ml octamer on carbon coated grids, uranyl acetate, reference-free class averages

Row | Molecule | stoichiometry N [1] | stoichiometry N [2] | stoichiometry N [3] | stoichiometry N [4] | stoichiometry N [5] | stoichiometry N [6] | stoichiometry N [7] | stoichiometry N [8]
1 | wild-type human retinoschisin (from UniProt O15537 24-224) (natural protein) | 8 | 8 and 16 | 8 | 8 and 16 | 8 | – | – | –
2 | B1 | – | – | – | – | – | 8 | 16 | –
3 | B2 | – | – | – | – | – | – | 16 | 8
